Measured values published in patent US20220306695A1, “COMPSTATIN ANALOGUES AND THEIR MEDICAL USES” (priority 2019, published 2022).
Starred links: 1 amine or outer side, 2 acyl side, 3 side chain; linkers in the order of their positions; H or OH if unused. Positions of bridges follow the written chain, without caps; N, C: chain ends. Non-standard residues stand in square brackets, D forms with d. Groups on a side chain read outwards from the residue. *: point of attachment. Trp(1-Me) = Cn1cc(C[C@H](N)C(=O)O)c2ccccc21; C18 diacid = O=C(O)CCCCCCCCCCCCCCCCC(=O)*; γGlu = O=C(O)[C@H](CCC(=O)[*:2])N[*:1]; hCys = N[C@@H](CCS)C(=O)O; AEEA = NCCOCCOCC(=O)O; Sar = CNCC(=O)O

target: Human C3 (human, UniProt P01024 23-1663); assay: cell-based or functional assay
Sequence (P01024 23-1663 limits assumed): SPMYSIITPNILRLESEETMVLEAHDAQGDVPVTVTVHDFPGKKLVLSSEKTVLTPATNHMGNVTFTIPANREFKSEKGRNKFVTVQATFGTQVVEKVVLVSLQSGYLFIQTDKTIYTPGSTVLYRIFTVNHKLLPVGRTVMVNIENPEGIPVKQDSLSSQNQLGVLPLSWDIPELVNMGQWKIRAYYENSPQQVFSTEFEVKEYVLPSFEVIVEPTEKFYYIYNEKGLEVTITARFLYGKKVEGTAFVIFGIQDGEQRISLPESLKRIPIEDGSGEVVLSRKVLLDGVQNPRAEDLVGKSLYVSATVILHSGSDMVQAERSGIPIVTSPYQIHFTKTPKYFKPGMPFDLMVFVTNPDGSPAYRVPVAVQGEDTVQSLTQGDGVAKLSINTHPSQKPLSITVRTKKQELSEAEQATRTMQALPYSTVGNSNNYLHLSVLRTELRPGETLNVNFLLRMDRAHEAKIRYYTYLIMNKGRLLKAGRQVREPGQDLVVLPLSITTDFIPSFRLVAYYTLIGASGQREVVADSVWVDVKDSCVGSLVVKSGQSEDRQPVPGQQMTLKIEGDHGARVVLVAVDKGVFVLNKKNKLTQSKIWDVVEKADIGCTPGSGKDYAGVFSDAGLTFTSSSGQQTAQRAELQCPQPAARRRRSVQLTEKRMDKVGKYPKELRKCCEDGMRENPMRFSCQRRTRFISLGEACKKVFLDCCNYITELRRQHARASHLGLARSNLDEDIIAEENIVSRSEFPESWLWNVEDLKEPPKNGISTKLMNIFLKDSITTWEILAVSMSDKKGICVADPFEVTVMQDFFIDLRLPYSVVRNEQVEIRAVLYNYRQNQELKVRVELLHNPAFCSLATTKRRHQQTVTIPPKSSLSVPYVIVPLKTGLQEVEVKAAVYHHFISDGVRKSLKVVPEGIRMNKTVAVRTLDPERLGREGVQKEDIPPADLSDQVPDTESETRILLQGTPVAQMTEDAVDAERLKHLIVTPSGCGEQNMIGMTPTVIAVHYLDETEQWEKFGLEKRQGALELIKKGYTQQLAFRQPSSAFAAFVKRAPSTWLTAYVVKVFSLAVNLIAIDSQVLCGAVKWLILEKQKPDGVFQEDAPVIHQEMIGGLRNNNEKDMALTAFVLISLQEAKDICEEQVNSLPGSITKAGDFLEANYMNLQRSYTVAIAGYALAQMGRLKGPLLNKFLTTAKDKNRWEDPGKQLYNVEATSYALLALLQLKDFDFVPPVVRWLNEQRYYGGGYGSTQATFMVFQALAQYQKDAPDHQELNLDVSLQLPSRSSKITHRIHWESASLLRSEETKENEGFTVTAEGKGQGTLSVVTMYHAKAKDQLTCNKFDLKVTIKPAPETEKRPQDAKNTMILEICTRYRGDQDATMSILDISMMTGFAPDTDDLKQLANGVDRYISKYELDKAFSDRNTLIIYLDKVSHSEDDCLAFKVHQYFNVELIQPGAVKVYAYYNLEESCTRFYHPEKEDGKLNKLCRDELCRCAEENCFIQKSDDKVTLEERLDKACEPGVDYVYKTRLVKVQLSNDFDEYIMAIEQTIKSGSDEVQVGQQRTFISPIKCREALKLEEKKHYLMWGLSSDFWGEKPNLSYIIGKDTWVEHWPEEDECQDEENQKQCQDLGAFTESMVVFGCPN

Binder | IC50[nM], inhibition of hemolysis
Ac-ICIWQEWGEHRCT-NH2 (disulfide 2-12; SMILES CC[C@H](C)[C@H](NC(C)=O)C(=O)N[C@H]1CSSC[C@@H](C(=O)N[C@H](C(N)=O)[C@@H](C)O)NC(=O)[C@H](CCCNC(=N)N)NC(=O)[C@H](Cc2c[nH]cn2)NC(=O)[C@H](CCC(=O)O)NC(=O)CNC(=O)[C@H](Cc2c[nH]c3ccccc23)NC(=O)[C@H](CCC(=O)O)NC(=O)[C@H](CCC(N)=O)NC(=O)[C@H](Cc2c[nH]c3ccccc23)NC(=O)[C@H]([C@@H](C)CC)NC1=O) [Compound 16] | < 100 nM
Ac-EFAI[Trp(1-Me)]QDWGEHR[hCys]EGEK([γGlu-Gly-γGlu-C18 diacid])-NH2 (thioether 3-13; SMILES CC[C@H](C)[C@@H]1NC(=O)[C@@H](NC(=O)[C@H](Cc2ccccc2)NC(=O)[C@H](CCC(=O)O)NC(C)=O)CSCC[C@@H](C(=O)N[C@@H](CCC(=O)O)C(=O)NCC(=O)N[C@@H](CCC(=O)O)C(=O)N[C@@H](CCCCNC(=O)CC[C@H](NC(=O)CNC(=O)CC[C@H](NC(=O)CCCCCCCCCCCCCCCCC(=O)O)C(=O)O)C(=O)O)C(N)=O)NC(=O)[C@H](CCCNC(=N)N)NC(=O)[C@H](Cc2c[nH]cn2)NC(=O)[C@H](CCC(=O)O)NC(=O)CNC(=O)[C@H](Cc2c[nH]c3ccccc23)NC(=O)[C@H](CC(=O)O)NC(=O)[C@H](CCC(N)=O)NC(=O)[C@H](Cc2cn(C)c3ccccc23)NC1=O) [Compound 161] | < 100 nM
Ac-SEFAI[Trp(1-Me)]QDWGEHR[hCys]TGAES-NH2 (thioether 4-14; SMILES CC[C@H](C)[C@@H]1NC(=O)[C@@H](NC(=O)[C@H](Cc2ccccc2)NC(=O)[C@H](CCC(=O)O)NC(=O)[C@H](CO)NC(C)=O)CSCC[C@@H](C(=O)N[C@H](C(=O)NCC(=O)N[C@@H](C)C(=O)N[C@@H](CCC(=O)O)C(=O)N[C@@H](CO)C(N)=O)[C@@H](C)O)NC(=O)[C@H](CCCNC(=N)N)NC(=O)[C@H](Cc2c[nH]cn2)NC(=O)[C@H](CCC(=O)O)NC(=O)CNC(=O)[C@H](Cc2c[nH]c3ccccc23)NC(=O)[C@H](CC(=O)O)NC(=O)[C@H](CCC(N)=O)NC(=O)[C@H](Cc2cn(C)c3ccccc23)NC1=O) [Compound 151] | < 100 nM
Ac-ICIWQKWGAHRCTGAES-NH2 (disulfide 2-12; SMILES CC[C@H](C)[C@H](NC(C)=O)C(=O)N[C@H]1CSSC[C@@H](C(=O)N[C@H](C(=O)NCC(=O)N[C@@H](C)C(=O)N[C@@H](CCC(=O)O)C(=O)N[C@@H](CO)C(N)=O)[C@@H](C)O)NC(=O)[C@H](CCCNC(=N)N)NC(=O)[C@H](Cc2c[nH]cn2)NC(=O)[C@H](C)NC(=O)CNC(=O)[C@H](Cc2c[nH]c3ccccc23)NC(=O)[C@H](CCCCN)NC(=O)[C@H](CCC(N)=O)NC(=O)[C@H](Cc2c[nH]c3ccccc23)NC(=O)[C@H]([C@@H](C)CC)NC1=O) [Compound 8] | < 500 nM
Ac-ESSAICIWQDWGEHRCTGAES-NH2 (disulfide 6-16; SMILES CC[C@H](C)[C@H](NC(=O)[C@H](C)NC(=O)[C@H](CO)NC(=O)[C@H](CO)NC(=O)[C@H](CCC(=O)O)NC(C)=O)C(=O)N[C@H]1CSSC[C@@H](C(=O)N[C@H](C(=O)NCC(=O)N[C@@H](C)C(=O)N[C@@H](CCC(=O)O)C(=O)N[C@@H](CO)C(N)=O)[C@@H](C)O)NC(=O)[C@H](CCCNC(=N)N)NC(=O)[C@H](Cc2c[nH]cn2)NC(=O)[C@H](CCC(=O)O)NC(=O)CNC(=O)[C@H](Cc2c[nH]c3ccccc23)NC(=O)[C@H](CC(=O)O)NC(=O)[C@H](CCC(N)=O)NC(=O)[C@H](Cc2c[nH]c3ccccc23)NC(=O)[C@H]([C@@H](C)CC)NC1=O) [Compound 14] | < 100 nM
Ac-SEFCI[Trp(1-Me)]QDW[Sar]EHRC[Sar]E[AEEA][AEEA]K([γGlu-Gly-γGlu-C18 diacid])-NH2 (disulfide 4-14; SMILES CC[C@H](C)[C@@H]1NC(=O)[C@@H](NC(=O)[C@H](Cc2ccccc2)NC(=O)[C@H](CCC(=O)O)NC(=O)[C@H](CO)NC(C)=O)CSSC[C@@H](C(=O)N(C)CC(=O)N[C@@H](CCC(=O)O)C(=O)NCCOCCOCC(=O)NCCOCCOCC(=O)N[C@@H](CCCCNC(=O)CC[C@H](NC(=O)CNC(=O)CC[C@H](NC(=O)CCCCCCCCCCCCCCCCC(=O)O)C(=O)O)C(=O)O)C(N)=O)NC(=O)[C@H](CCCNC(=N)N)NC(=O)[C@H](Cc2c[nH]cn2)NC(=O)[C@H](CCC(=O)O)NC(=O)CN(C)C(=O)[C@H](Cc2c[nH]c3ccccc23)NC(=O)[C@H](CC(=O)O)NC(=O)[C@H](CCC(N)=O)NC(=O)[C@H](Cc2cn(C)c3ccccc23)NC1=O) [Compound 144] | < 100 nM
Ac-ICIWQDWGRHRCT-NH2 (disulfide 2-12; SMILES CC[C@H](C)[C@H](NC(C)=O)C(=O)N[C@H]1CSSC[C@@H](C(=O)N[C@H](C(N)=O)[C@@H](C)O)NC(=O)[C@H](CCCNC(=N)N)NC(=O)[C@H](Cc2c[nH]cn2)NC(=O)[C@H](CCCNC(=N)N)NC(=O)CNC(=O)[C@H](Cc2c[nH]c3ccccc23)NC(=O)[C@H](CC(=O)O)NC(=O)[C@H](CCC(N)=O)NC(=O)[C@H](Cc2c[nH]c3ccccc23)NC(=O)[C@H]([C@@H](C)CC)NC1=O) [Compound 18] | < 100 nM
Ac-ESSAYCIWQDWGEHRCT-NH2 (disulfide 6-16; SMILES CC[C@H](C)[C@@H]1NC(=O)[C@@H](NC(=O)[C@H](Cc2ccc(O)cc2)NC(=O)[C@H](C)NC(=O)[C@H](CO)NC(=O)[C@H](CO)NC(=O)[C@H](CCC(=O)O)NC(C)=O)CSSC[C@@H](C(=O)N[C@H](C(N)=O)[C@@H](C)O)NC(=O)[C@H](CCCNC(=N)N)NC(=O)[C@H](Cc2c[nH]cn2)NC(=O)[C@H](CCC(=O)O)NC(=O)CNC(=O)[C@H](Cc2c[nH]c3ccccc23)NC(=O)[C@H](CC(=O)O)NC(=O)[C@H](CCC(N)=O)NC(=O)[C@H](Cc2c[nH]c3ccccc23)NC1=O) [Compound 10] | < 100 nM
SEFAIWQDWGEHRCTEGEXESK (not fully specified; N-acetyl; C-terminal amide; delta-cystathionine (Ctt2) thioether bridge A4-hCys14 (hCys written C); W6 is 1-Me-Trp; X19 is Peg3; K22 side chain bears [17-carboxy-heptadecanoyl][γGlu]) [Compound 148] | < 100 nM
Ac-SEF[hCys]I[Trp(1-Me)]QDW[Sar]EHRA[Sar]EGE[AEEA]ESK([γGlu-Gly-γGlu-C18 diacid])-NH2 (thioether 4-14; SMILES CC[C@H](C)[C@@H]1NC(=O)[C@@H](NC(=O)[C@H](Cc2ccccc2)NC(=O)[C@H](CCC(=O)O)NC(=O)[C@H](CO)NC(C)=O)CCSC[C@@H](C(=O)N(C)CC(=O)N[C@@H](CCC(=O)O)C(=O)NCC(=O)N[C@@H](CCC(=O)O)C(=O)NCCOCCOCC(=O)N[C@@H](CCC(=O)O)C(=O)N[C@@H](CO)C(=O)N[C@@H](CCCCNC(=O)CC[C@H](NC(=O)CNC(=O)CC[C@H](NC(=O)CCCCCCCCCCCCCCCCC(=O)O)C(=O)O)C(=O)O)C(N)=O)NC(=O)[C@H](CCCNC(=N)N)NC(=O)[C@H](Cc2c[nH]cn2)NC(=O)[C@H](CCC(=O)O)NC(=O)CN(C)C(=O)[C@H](Cc2c[nH]c3ccccc23)NC(=O)[C@H](CC(=O)O)NC(=O)[C@H](CCC(N)=O)NC(=O)[C@H](Cc2cn(C)c3ccccc23)NC1=O) [Compound 166] | < 100 nM
Ac-YCIWQDWGEHRCT-NH2 (disulfide 2-12; SMILES CC[C@H](C)[C@@H]1NC(=O)[C@@H](NC(=O)[C@H](Cc2ccc(O)cc2)NC(C)=O)CSSC[C@@H](C(=O)N[C@H](C(N)=O)[C@@H](C)O)NC(=O)[C@H](CCCNC(=N)N)NC(=O)[C@H](Cc2c[nH]cn2)NC(=O)[C@H](CCC(=O)O)NC(=O)CNC(=O)[C@H](Cc2c[nH]c3ccccc23)NC(=O)[C@H](CC(=O)O)NC(=O)[C@H](CCC(N)=O)NC(=O)[C@H](Cc2c[nH]c3ccccc23)NC1=O) [Compound 9] | < 100 nM
Ac-ICIWQDWGDHRCT-NH2 (disulfide 2-12; SMILES CC[C@H](C)[C@H](NC(C)=O)C(=O)N[C@H]1CSSC[C@@H](C(=O)N[C@H](C(N)=O)[C@@H](C)O)NC(=O)[C@H](CCCNC(=N)N)NC(=O)[C@H](Cc2c[nH]cn2)NC(=O)[C@H](CC(=O)O)NC(=O)CNC(=O)[C@H](Cc2c[nH]c3ccccc23)NC(=O)[C@H](CC(=O)O)NC(=O)[C@H](CCC(N)=O)NC(=O)[C@H](Cc2c[nH]c3ccccc23)NC(=O)[C@H]([C@@H](C)CC)NC1=O) [Compound 17] | < 100 nM
Ac-ICIWQDWGAHRCE-NH2 (disulfide 2-12; SMILES CC[C@H](C)[C@H](NC(C)=O)C(=O)N[C@H]1CSSC[C@@H](C(=O)N[C@@H](CCC(=O)O)C(N)=O)NC(=O)[C@H](CCCNC(=N)N)NC(=O)[C@H](Cc2c[nH]cn2)NC(=O)[C@H](C)NC(=O)CNC(=O)[C@H](Cc2c[nH]c3ccccc23)NC(=O)[C@H](CC(=O)O)NC(=O)[C@H](CCC(N)=O)NC(=O)[C@H](Cc2c[nH]c3ccccc23)NC(=O)[C@H]([C@@H](C)CC)NC1=O) [Compound 12] | < 100 nM
Ac-ICIWQDWGEHRCE-NH2 (disulfide 2-12; SMILES CC[C@H](C)[C@H](NC(C)=O)C(=O)N[C@H]1CSSC[C@@H](C(=O)N[C@@H](CCC(=O)O)C(N)=O)NC(=O)[C@H](CCCNC(=N)N)NC(=O)[C@H](Cc2c[nH]cn2)NC(=O)[C@H](CCC(=O)O)NC(=O)CNC(=O)[C@H](Cc2c[nH]c3ccccc23)NC(=O)[C@H](CC(=O)O)NC(=O)[C@H](CCC(N)=O)NC(=O)[C@H](Cc2c[nH]c3ccccc23)NC(=O)[C@H]([C@@H](C)CC)NC1=O) [Compound 22] | < 100 nM
